Measured values reported in patent US20210380703A1 (RIGEL PHARMACEUTICALS, published 2021).

How the values were obtained:
Human ACVR2A [1] = molecular target: T1, Human ACVR2A (human, UniProt P27037 20-135, limits assumed); assay: ELISA
T1 construct: also called activin receptor, type II A
Method in brief: (§1)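 Binding signal was read by ELISA after ACVR2A-specific monoclonal antibodies were tested against human ACVR2A and mouse ACVR2A, with human Fc as the negative control.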

Mouse ACVR2A [2] = molecular target: Mouse ACVR2A (mouse, UniProt P27038 20-135, limits assumed); assay: ELISA
Sequence of Mouse ACVR2A (P27038 20-135 limits assumed): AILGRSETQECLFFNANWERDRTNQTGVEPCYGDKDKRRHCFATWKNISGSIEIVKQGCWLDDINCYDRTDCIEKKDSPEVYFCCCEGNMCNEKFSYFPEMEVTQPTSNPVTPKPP
Method in brief: as §1

Goat anti-Human Kappa = molecular target: T2, Goat anti-Human Kappa; assay: ELISA; positive control
T2 construct: Positive control; also called biotinylated goat anti-human kappa light chain
Method in brief: (§2)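 Monoclonal antibodies were first applied to human or mouse ACVR2A, alongside biotinylated goat anti-human kappa light chain (positive control) and human Fc (negative control); binding was then determined by ELISA.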

human ACVR2A [3] = molecular target: human ACVR2A (human, UniProt P27037 20-135, limits assumed); assay: ELISA
Sequence of human ACVR2A (P27037 20-135 limits assumed): as the sequence (P27038 20-135 limits assumed) above, with R20K, I73V counted along it
Method in brief: as §1

mouse ACVR2A [4] = molecular target: mouse ACVR2A (mouse, UniProt P27038 20-135, limits assumed); assay: ELISA
Sequence of mouse ACVR2A (P27038 20-135 limits assumed): as the sequence (P27038 20-135 limits assumed) above
Method in brief: as §1

[5] = molecular target: T3, biotinylated goat anti-human kappa light chain; assay: ELISA; positive control
T3 construct: Positive control of the ELISA
Method in brief: as §2
Note: test concentration or dose not given here.

T1 sequence (P27037 20-135 limits assumed): as the sequence (P27038 20-135 limits assumed) above, with R20K, I73V counted along it

B1: 365_C12 (antibody, V domains shown)
VH: EVQLLESGGGLVQPGGSLRLSCAASGFTFSSYGMNWVRQAPGKGLEWVAGINYNSGYKSYADSVKGRFTISRDNSKNTLYLQMNSLRAEDTAVYYCARSANWHDTALDYWGQGTLVTVSS
VL: DIQMTQSPSSLSASVGDRVTITCRASQSIVSYVNWYQQKPGKAPKLVIYAVTSLASGVPSRFSGSGSGTDFTLTISSLQPEDFATYYCQQSYDTPLTFGGGTKVEIK
notes: VH/VL only
- optical density (Human ACVR2A [1]): 1.92 OD
- optical density (Mouse ACVR2A [2]): 2.04 OD
- optical density (Goat anti-Human Kappa): 3.58 OD

B2: 365_H03 (antibody, V domains shown)
VH: EVQLLESGGGLVQPGGSLRLSCAASGFTFDDYGMNWVRQAPGKGLEWVAGINYNGGYKSYADSVKGRFTISRDNSKNTLYLQMNSLRAEDTAVYYCARSANWHDTALDYWGQGTLVTVSS
VL: DIQMTQSPSSLSASVGDRVTITCRASQSILSYVNWYQQKPGKAPKLVIYAATSLHSGVPSRFSGSGSGTDFTLTISSLQPEDFATYYCQQSYNNPLTFGGGTKVEIK
notes: VH/VL only
- optical density (Human ACVR2A [1]): 2.32 OD
- optical density (Mouse ACVR2A [2]): 2.65 OD
- optical density (Goat anti-Human Kappa): 3.27 OD

B3: 366_H07 (antibody, V domains shown)
VH: EVQLLESGGGLVQPGGSLRLSCAASGFTFSSYGMHWVRQAPGKGLEWVSGINYNGGYTSYADSVKGRFTISRDNSKNTLYLQMNSLRAEDTAVYYCARSANWHDTALDYWGQGTLVTVSS
VL: DIQMTQSPSSLSASVGDRVTITCRASQSIISYVNWYQQKPGKAPKLVIYAVTSRASGVPSRFSGSGSGTDFTLTISSLQPEDFATYYCQQSYENPLTFGGGTKVEIK
notes: VH/VL only
- optical density (Human ACVR2A [1]): 2.53 OD
- optical density (Mouse ACVR2A [2]): 2.67 OD
- optical density (Goat anti-Human Kappa): 3.6 OD

B4: 370_A09 (antibody, V domains shown)
VH: EVQLLESGGGLVQPGGSLRLSCAASGFTFSSYSMNWVRQAPGKGLEWVAGINYNGGYTGYADSVKGRFTISRDNSKNTLYLQMNSLRAEDTAVYYCARSATWHDTHLDYWGQGTLVTVSS
VL: DIQMTQSPSSLSASVGDRVTITCRASQSILTYLNWYQQKPGKAPKLVIYAATSRASGVPSRFSGSGSGTDFTLTISSLQPEDFATYYCQQSYDTPLTFGGGTKVEIK
notes: VH/VL only
- optical density (human ACVR2A [3]): 3.46 OD
- optical density (mouse ACVR2A [4]): 3.27 OD
- optical density [5]: 3.58 OD

B5: 365_F01 (antibody, V domains shown)
VH: EVQLLESGGGLVQPGGSLRLSCAASGFTFDSYSMNWVRQAPGKGLEWVSGINYNSGYKGYADSVKGRFTISRDNSKNTLYLQMNSLRAEDTAVYYCARSANWHDTHLDYWGQGTLVTVSS
VL: DIQMTQSPSSLSASVGDRVTITCRASQSIVSYLNWYQQKPGKAPKLVIYAATSLASGVPSRFSGSGSGTDFTLTISSLQPEDFATYYCQQSYELPLTFGGGTKVEIK
notes: VH/VL only
- optical density (Human ACVR2A [1]): 2.51 OD
- optical density (Mouse ACVR2A [2]): 2.47 OD
- optical density (Goat anti-Human Kappa): 3.51 OD

B6: 366_A07 (antibody, V domains shown)
VH: EVQLLESGGGLVQPGGSLRLSCAASGFTFSSYGMHWVRQAPGKGLEWVASINYNGGYTGYADSVKGRFTISRDNSKNTLYLQMNSLRAEDTAVYYCARSANWHDTALDYWGQGTLVTVSS
VL: DIQMTQSPSSLSASVGDRVTITCRASQSIVSYVNWYQQKPGKAPKLVIYAATSRHSGVPSRFSGSGSGTDFTLTISSLQPEDFATYYCQQSYESPLTFGGGTKVEIK
notes: VH/VL only
- optical density (Human ACVR2A [1]): 2.42 OD
- optical density (Mouse ACVR2A [2]): 2.68 OD
- optical density (Goat anti-Human Kappa): 3.37 OD

B7: 366_H09 (antibody, V domains shown)
VH: EVQLLESGGGLVQPGGSLRLSCAASGFTFDSYGMNWVRQAPGKGLEWVSNINYNSGYKGYADSVKGRFTISRDNSKNTLYLQMNSLRAEDTAVYYCARSANWHDTALDYWGQGTLVTVSS
VL: DIQMTQSPSSLSASVGDRVTITCRASQSIVSYVNWYQQKPGKAPKLVIYATTSRASGVPSRFSGSGSGTDFTLTISSLQPEDFATYYCQQSYSSPLTFGGGTKVEIK
notes: VH/VL only
- optical density (Human ACVR2A [1]): 2.1 OD
- optical density (Mouse ACVR2A [2]): 2.44 OD
- optical density (Goat anti-Human Kappa): 3.42 OD

B8: 367_B02 (antibody, V domains shown)
VH: EVQLLESGGGLVQPGGSLRLSCAASGFTFDSYGMNWVRQAPGKGLEWVSSINYNGGYTSYADSVKGRFTISRDNSKNTLYLQMNSLRAEDTAVYYCARSANWHDTALDYWGQGTLVTVSS
VL: not shown
notes: VH/VL only
- optical density (Human ACVR2A [1]): 2.29 OD
- optical density (Mouse ACVR2A [2]): 2.42 OD
- optical density (Goat anti-Human Kappa): 3.53 OD

B9: 366_E10 (antibody, V domains shown)
VH: EVQLLESGGGLVQPGGSLRLSCAASGFTFDSYGMNWVRQAPGKGLEWVSGINYNGGYKGYADSVKGRFTISRDNSKNTLYLQMNSLRAEDTAVYYCARSANWHDTHLDYWGQGTLVTVSS
VL: DIQMTQSPSSLSASVGDRVTITCRASQSILSYVNWYQQKPGKAPKLVIYAATSRHSGVPSRFSGSGSGTDFTLTISSLQPEDFATYYCQQSYSLPLTFGGGTKVEIK
notes: VH/VL only
- optical density (Human ACVR2A [1]): 2.35 OD
- optical density (Mouse ACVR2A [2]): 2.39 OD
- optical density (Goat anti-Human Kappa): 3.45 OD

B10: 366_G05 (antibody, V domains shown)
VH: EVQLLESGGGLVQPGGSLRLSCAASGFTFDSYGMNWVRQAPGKGLEWVSNINYNGGYTSYADSVKGRFTISRDNSKNTLYLQMNSLRAEDTAVYYCARSANWHDTALDYWGQGTLVTVSS
VL: DIQMTQSPSSLSASVGDRVTITCRASQSIISYVNWYQQKPGKAPKLVIYAATSRASGVPSRFSGSGSGTDFTLTISSLQPEDFATYYCQQSYENPLTFGGGTKVEIK
notes: VH/VL only
- optical density (Human ACVR2A [1]): 2.21 OD
- optical density (Mouse ACVR2A [2]): 2.5 OD
- optical density (Goat anti-Human Kappa): 3.26 OD

B11: 365_A10 (antibody, V domains shown)
VH: EVQLLESGGGLVQPGGSLRLSCAASGFTFSSYGMHWVRQAPGKGLEWVAGINYNSGYTSYADSVKGRFTISRDNSKNTLYLQMNSLRAEDTAVYYCARSATWHDTHLDYWGQGTLVTVSS
VL: DIQMTQSPSSLSASVGDRVTITCRASQSILTYLNWYQQKPGKAPKLVIYAVTSLASGVPSRFSGSGSGTDFTLTISSLQPEDFATYYCQQSYDSPLTFGGGTKVEIK
notes: VH/VL only
- optical density (human ACVR2A [3]): 2.19 OD
- optical density (mouse ACVR2A [4]): 2.49 OD
- optical density [5]: 3.45 OD

B12: 365_A01 (antibody, V domains shown)
VH: EVQLLESGGGLVQPGGSLRLSCAASGFTFSDYGMNWVRQAPGKGLEWVAGINYNGGYTSYADSVKGRFTISRDNSKNTLYLQMNSLRAEDTAVYYCARSATWHDTHLDYWGQGTLVTVSS
VL: DIQMTQSPSSLSASVGDRVTITCRASQSILTYVNWYQQKPGKAPKLVIYATTSLASGVPSRFSGSGSGTDFTLTISSLQPEDFATYYCQQSYSTPLTFGGGTKVEIK
notes: VH/VL only
- optical density (human ACVR2A [3]): 2.77 OD
- optical density (mouse ACVR2A [4]): 2.9 OD
- optical density [5]: 3.51 OD

B13: 365_A07 (antibody, V domains shown)
VH: EVQLLESGGGLVQPGGSLRLSCAASGFTFSSYGMNWVRQAPGKGLEWVAGINYNSGYKGYADSVKGRFTISRDNSKNTLYLQMNSLRAEDTAVYYCARSATWHDTHLDYWGQGTLVTVSS
VL: DIQMTQSPSSLSASVGDRVTITCRASQSIVSYLNWYQQKPGKAPKLLIYAATSRASGVPSRFSGSGSGTDFTLTISSLQPEDFATYYCQQSYNLPLTFGGGTKVEIK
notes: VH/VL only
- optical density (human ACVR2A [3]): 2.24 OD
- optical density (mouse ACVR2A [4]): 2.25 OD
- optical density [5]: 3.41 OD

B14: 365_B03 (antibody, V domains shown)
VH: EVQLLESGGGLVQPGGSLRLSCAASGFTFSSYSMNWVRQAPGKGLEWVAGINYNGGYTGYADSVKGRFTISRDNSKNTLYLQMNSLRAEDTAVYYCARSATWHDTHLDYWGQGTLVTVSS
VL: DIQMTQSPSSLSASVGDRVTITCRASQSIVSYLNWYQQKPGKAPKLLIYAATSRASGVPSRFSGSGSGTDFTLTISSLQPEDFATYYCQQSYENPLTFGGGTKVEIK
notes: VH/VL only
- optical density (human ACVR2A [3]): 2.65 OD
- optical density (mouse ACVR2A [4]): 2.53 OD
- optical density [5]: 3.38 OD
